From patent publication US20250066421A1
*1 amine or outer side, *2 acyl side, *3 side chain or, on linkers, in order; H or OH if unused. Bridges are numbered along the chain shown (N, C = ends). Where no end group is shown, it is not given here. [ ]: non-standard residue; d: D form. TATA = O=C(CC[*:1])N1CN(C(=O)CC[*:2])CN(C(=O)CC[*:3])C1; 1Nal = N[C@@H](Cc1cccc2ccccc12)C(=O)O; PABC = O=C(OCc1ccc(N[*:1])cc1)[*:2]; Glutaryl = O=C(CCCC(=O)[*:2])[*:1]; Cya = N[C@@H](CS(=O)(=O)O)C(=O)O; Hyp = O=C(O)[C@@H]1C[C@@H](O)CN1; dCya = N[C@H](CS(=O)(=O)O)C(=O)O; hArg = N=C(N)NCCCC[C@H](N)C(=O)O; Cit = NC(=O)NCCC[C@H](N)C(=O)O; βAla = NCCC(=O)O; Sar = CNCC(=O)O

T1: human Nectin-4 (human), Q96NY8
T1 chain: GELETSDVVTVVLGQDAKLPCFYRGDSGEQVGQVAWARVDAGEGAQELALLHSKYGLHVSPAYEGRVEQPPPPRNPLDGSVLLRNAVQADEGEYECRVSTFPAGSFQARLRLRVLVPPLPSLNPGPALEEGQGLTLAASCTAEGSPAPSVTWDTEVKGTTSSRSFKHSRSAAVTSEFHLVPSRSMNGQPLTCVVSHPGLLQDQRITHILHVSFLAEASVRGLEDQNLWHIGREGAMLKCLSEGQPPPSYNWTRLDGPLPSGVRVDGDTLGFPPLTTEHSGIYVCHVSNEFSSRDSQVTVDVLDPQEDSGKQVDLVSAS


Columns and labels:
[1] = biological target: Human Nectin-4 (residues Gly32-Ser349; NCBI RefSeq: NP_112178.2) with C-terminal FLAG tag, biotinylated (human) (UniProt Q96NY8); test: SPR (Biacore 3000), biotinylated human Nectin-4 on streptavidin CM5 chip, peptide as analyte
[2] = biological target: Human Nectin-4 (residues Gly32-Ser349; NCBI RefSeq: NP_112178.2) with C-terminal FLAG tag, biotinylated (human) (UniProt Q96NY8); test: SPR (Biacore 3000), biotinylated human Nectin-4 on streptavidin CM5 chip, drug conjugate as analyte
[3] = biological target: T1, human Nectin-4 (human), Q96NY8; test: FP competition with tracer m4; conditions: remark: other sources report otherwise

Kd [1] [nM] | Binder | also measured
6.11 | {Ac-βAla}-[Sar][Sar][Sar][Sar][Sar][Sar][Sar][Sar][Sar][Sar]CP[1Nal][dD]CM[Cya][Cya]WSTP[Hyp]WC (linker 11-15-25 via TATA) [BCY8281: Ac-[B-Ala][Sar10]-(SEQ ID NO: 210)] | –
– | {MMAE-PABC-Cit-Val-Glutaryl-βAla}-[Sar][Sar][Sar][Sar][Sar][Sar][Sar][Sar][Sar][Sar]CP[1Nal][dCya]CM[hArg][Cya]WSTP[Hyp]WC (linker 11-15-25 via TATA) [BCY8784: MMAE-PABC-Cit-Val-Glutaryl-BCY8273] | Kd [2]: 0.662 nM
1.92 | {Ac-βAla}-[Sar][Sar][Sar][Sar][Sar][Sar][Sar][Sar][Sar][Sar]CP[1Nal][dD]CM[hArg][Cya]WSTP[Hyp]WC (linker 11-15-25 via TATA) [BCY8278: Ac-[B-Ala][Sar10]-(SEQ ID NO: 177)] | –
0.94 | Ac-CP[1Nal][dD]CM[hArg][Cya]WSTP[Hyp]WC (linker 1-5-15 via TATA) [BCY8161: Ac-(SEQ ID NO: 177)] | –
2 | {Ac-βAla}-[Sar][Sar][Sar][Sar][Sar][Sar][Sar][Sar][Sar][Sar]CP[1Nal][dCya]CM[hArg][Cya]WSTP[Hyp]WC (linker 11-15-25 via TATA) [BCY8280: Ac-[B-Ala][Sar10]-(SEQ ID NO: 209)] | –
– | ACPFGCMKNWAWPIWCTNK (linker 2-6-16 via TATA) [BCY7424] | Ki [3]: 562 nM
